Reference: US20130224235A1

Assays:
Assay in all cases: indirect ELISA, protein coated, serum 1:100
[1] = biological target: 6xHis tagged N-terminal fusion protein (gp100 209-217(2M) peptide fused to PVA CP N-terminus) expres (Potato virus A (isolate B11)) (UniProt Q85197)
[2] = biological target: 6xHis tagged wild type potato virus A coat protein (wtCP) expressed in E. coli from wtCP/pQE (Potato virus A (isolate B11)) (UniProt Q85197)
[3] = biological target: 6xHis tagged C-terminal fusion protein (gp100 209-217(2M) peptide fused to PVA CP C-terminus) expres (Potato virus A (isolate B11)) (UniProt Q85197)

Measured: optical density at 450 nm

control mouse serum raised against PBS (antibody)
< 0.35 OD 450 nm: [1] | [2] | [3]
